Holding throughout (experiment): ITC
(In general: ITC needs no label: the signal is the heat of the interaction.)

The target in one assay is AnkG R6-16 (UniProt O70511).
The target in assay [1] is T1, AnkG 275-571 (AnkG R8-16) (UniProt O70511 275-571).
T1 sequence: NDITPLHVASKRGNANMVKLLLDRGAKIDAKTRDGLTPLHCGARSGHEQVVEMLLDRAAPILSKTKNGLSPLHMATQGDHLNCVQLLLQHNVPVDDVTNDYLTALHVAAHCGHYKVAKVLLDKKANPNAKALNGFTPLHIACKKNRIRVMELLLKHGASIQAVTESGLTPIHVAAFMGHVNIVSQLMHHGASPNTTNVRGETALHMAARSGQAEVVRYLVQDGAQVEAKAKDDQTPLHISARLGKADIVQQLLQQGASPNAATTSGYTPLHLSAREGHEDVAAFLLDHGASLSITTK

Assay [2] concerns the target T2, AnkG ANK repeats (R1-24, residues 38-855) (UniProt O70511 38-855).
T2 sequence: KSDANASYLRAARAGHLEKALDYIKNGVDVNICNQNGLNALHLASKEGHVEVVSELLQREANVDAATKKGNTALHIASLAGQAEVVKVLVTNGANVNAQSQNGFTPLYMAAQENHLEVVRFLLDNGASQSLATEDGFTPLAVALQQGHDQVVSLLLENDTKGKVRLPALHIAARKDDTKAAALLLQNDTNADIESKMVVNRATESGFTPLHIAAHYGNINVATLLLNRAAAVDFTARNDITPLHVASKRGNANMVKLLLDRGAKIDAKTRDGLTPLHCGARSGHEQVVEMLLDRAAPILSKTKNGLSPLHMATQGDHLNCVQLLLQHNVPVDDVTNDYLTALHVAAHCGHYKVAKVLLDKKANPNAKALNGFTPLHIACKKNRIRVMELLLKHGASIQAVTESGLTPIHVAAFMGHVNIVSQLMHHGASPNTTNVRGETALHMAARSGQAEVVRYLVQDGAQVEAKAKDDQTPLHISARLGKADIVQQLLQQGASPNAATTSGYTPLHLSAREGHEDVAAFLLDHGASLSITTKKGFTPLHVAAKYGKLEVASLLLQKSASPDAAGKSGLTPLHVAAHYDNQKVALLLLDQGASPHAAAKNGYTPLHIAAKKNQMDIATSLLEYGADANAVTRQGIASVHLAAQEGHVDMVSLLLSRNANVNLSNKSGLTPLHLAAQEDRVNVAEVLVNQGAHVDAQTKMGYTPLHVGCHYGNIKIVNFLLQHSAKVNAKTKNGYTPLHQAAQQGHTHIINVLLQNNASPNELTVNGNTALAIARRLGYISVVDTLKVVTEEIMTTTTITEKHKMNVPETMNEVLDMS

Chain of AnkG R6-16 (O70511 whole entry): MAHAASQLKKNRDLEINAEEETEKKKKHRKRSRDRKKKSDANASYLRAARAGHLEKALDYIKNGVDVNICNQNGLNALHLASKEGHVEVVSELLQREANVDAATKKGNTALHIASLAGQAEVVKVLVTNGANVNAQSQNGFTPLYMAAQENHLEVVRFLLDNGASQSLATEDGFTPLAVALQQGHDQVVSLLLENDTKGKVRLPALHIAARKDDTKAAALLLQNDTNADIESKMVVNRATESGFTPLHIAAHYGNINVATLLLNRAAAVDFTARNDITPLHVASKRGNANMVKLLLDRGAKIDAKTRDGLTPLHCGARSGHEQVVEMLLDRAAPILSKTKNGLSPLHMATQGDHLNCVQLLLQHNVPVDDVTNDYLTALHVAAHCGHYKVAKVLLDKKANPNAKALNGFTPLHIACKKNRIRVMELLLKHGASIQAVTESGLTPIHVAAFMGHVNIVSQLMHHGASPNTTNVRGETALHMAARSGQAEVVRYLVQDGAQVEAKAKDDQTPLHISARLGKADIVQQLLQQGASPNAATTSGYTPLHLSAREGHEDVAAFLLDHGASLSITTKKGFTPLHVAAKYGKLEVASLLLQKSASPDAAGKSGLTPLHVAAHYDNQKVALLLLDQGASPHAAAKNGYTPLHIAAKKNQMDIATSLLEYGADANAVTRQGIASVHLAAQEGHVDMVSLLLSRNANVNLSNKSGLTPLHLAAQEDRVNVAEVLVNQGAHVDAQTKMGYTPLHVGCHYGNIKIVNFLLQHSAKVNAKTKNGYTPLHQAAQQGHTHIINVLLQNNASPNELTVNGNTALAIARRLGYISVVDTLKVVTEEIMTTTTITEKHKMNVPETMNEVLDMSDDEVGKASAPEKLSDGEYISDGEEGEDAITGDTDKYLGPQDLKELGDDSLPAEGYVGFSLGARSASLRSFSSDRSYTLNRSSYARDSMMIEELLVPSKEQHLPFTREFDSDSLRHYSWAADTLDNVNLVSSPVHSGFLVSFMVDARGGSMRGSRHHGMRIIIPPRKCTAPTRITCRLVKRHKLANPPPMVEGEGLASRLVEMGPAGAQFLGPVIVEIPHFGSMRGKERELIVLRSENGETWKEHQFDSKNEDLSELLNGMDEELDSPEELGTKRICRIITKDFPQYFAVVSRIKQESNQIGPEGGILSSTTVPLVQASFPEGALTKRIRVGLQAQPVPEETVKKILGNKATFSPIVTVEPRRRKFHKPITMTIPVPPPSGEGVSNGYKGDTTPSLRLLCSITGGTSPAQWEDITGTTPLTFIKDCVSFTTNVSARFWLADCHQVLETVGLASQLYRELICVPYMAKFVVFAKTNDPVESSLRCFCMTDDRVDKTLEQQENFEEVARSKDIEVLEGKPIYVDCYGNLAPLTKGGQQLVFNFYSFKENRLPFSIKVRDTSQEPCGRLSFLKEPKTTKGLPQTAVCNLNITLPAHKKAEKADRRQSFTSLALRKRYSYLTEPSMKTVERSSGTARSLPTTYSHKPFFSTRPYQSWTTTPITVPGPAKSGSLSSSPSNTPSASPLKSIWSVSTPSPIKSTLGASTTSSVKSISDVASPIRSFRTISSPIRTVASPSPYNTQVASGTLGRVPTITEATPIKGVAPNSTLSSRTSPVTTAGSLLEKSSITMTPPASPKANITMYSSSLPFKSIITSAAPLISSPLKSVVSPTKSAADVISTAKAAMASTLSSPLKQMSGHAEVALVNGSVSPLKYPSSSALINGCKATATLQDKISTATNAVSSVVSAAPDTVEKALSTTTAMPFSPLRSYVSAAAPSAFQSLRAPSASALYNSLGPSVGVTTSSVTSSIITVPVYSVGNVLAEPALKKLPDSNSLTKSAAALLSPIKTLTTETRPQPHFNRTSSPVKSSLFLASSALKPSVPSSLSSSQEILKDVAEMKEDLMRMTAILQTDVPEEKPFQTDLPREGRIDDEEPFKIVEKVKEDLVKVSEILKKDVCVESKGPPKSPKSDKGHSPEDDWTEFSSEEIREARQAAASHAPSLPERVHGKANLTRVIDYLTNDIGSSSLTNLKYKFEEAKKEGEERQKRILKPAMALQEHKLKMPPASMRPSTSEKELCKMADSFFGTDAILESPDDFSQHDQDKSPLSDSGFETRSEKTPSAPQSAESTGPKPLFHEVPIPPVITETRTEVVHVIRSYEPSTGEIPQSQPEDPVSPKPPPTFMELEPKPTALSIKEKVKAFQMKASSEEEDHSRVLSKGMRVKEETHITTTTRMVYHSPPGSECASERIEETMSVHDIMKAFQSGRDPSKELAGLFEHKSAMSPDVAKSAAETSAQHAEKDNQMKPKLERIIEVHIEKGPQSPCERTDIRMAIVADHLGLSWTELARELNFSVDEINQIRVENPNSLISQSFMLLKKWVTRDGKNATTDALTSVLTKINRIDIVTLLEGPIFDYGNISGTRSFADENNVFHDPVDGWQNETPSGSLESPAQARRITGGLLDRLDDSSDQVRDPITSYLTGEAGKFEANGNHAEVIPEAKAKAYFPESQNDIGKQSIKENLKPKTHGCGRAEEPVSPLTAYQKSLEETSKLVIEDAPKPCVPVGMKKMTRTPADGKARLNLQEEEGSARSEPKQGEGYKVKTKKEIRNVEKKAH

Turning to “Nfasc ankyrin binding domain (ABD), residues 1187-1214 (from UniProt P97685 1187-1214) (domain or fragment)”, in the assay with AnkG R6-16, the equilibrium dissociation constant (Kd) turned out to be 290 nM.

B1: Nfasc ankyrin binding domain (ABD), residues 1187-1214 (domain or fragment)
chain: SDDSLVDYGEGGEGQFNEDGSFIGQYTV
For the molecule B1, the Kd was roughly 1200 nM in assay [1] and roughly 220 nM in assay [2].

B2: Nfasc 1198-1214 E1204A (peptide)
chain: GEGQFNADGSFIGQYTV
Take B2: in assay [2], the “fold decrease in binding affinity against Nfasc 1198-1214 WT” value was roughly 27 fold.

B3: Nfasc 1198-1214 Y1212E (peptide)
chain: GEGQFNEDGSFIGQETV
For the molecule B3, the “fold decrease in binding against Nfasc 1198-1214 WT” value in assay [2] is roughly 9 fold.

B4: Nfasc 1198-1214 F1202Q (peptide)
chain: GEGQQNEDGSFIGQYTV
As for B4, the “fold decrease in binding against Nfasc 1198-1214 WT” value in assay [2] is greater than 20 fold.

The term Kd denotes the concentration at which binding is half-saturated.

The values are drawn from paper doi:10.1101/2022.04.27.489743 (bioRxiv, 2022).
